Measurements taken from patent US20150344570A1 (published 2015).
Substitutions are numbered along the chain they refer to.

Legend:
FcgRIIIaF [1] = target: T1, FcgRIIIaF (human, UniProt P08637 17-208); assay: SPR (Biacore), antibody captured on chip, FcgR extracellular domain as analyte
T1 construct: extracellular domain; also called FcγRIIIa F; 3aF; not shown: His tag attached to the C terminus
Description: (§1) Specifically, H240-Kn204 resulting from the introduction of L234Y/K290Y/Y296W into H240-Kn033, H240-Hl211 resulting from the introduction of S239D/A330M/K334V into H240-Hl033, H240-Kn205 resulting from the introduction of L234Y/Y296W/S298C into H240-Kn033, and H240-Hl212 resulting from the introduction of S239D/K334V into H240-Hl033 were produced according to the method of Reference Example 1. H240-Kn204/H240-Hl211/L73-k0 and H240-Kn205/H240-Hl212/L73-k0 were prepared according to the method of Reference Example 1, by combining H240-Kn204 as one of the H chains and L73-k0 as the L chains with H240-Hl211 as the other H chain, and by combining H240-Kn205 as one of the H chains and L73-k0 as the L chains with H240-Hl212 as the other H chain, and then expressing them. The binding of the prepared variants to FcgRIa, FcgRIIaR, FcgRIIaH, FcgRIIb, FcgRIIIaF, and FcgRIIIaV was measured according to the method of Reference Example 8.
(§2) Analysis of interaction between objective antibody and the FcγR was carried out using Biacore T100 (GE Healthcare), Biacore T200, Biacore A100, and Biacore 4000. HBS-EP+ (GE Healthcare) was used as the running buffer, and the measurement temperature was set to 25° C. Chips produced by immobilizing the antigen peptide by the amine coupling method to a Series S sensor Chip CM5 (GE Healthcare), chips produced by allowing preliminarily biotinylated antigen peptides to interact with and immobilize onto a Series S Sensor Chip SA (certified) (GE Healthcare), chips produced by immobilizing Protein L (ACTIGEN, BioVision) to Series S Sencor Chip CM5 (GE Healthcare), or chips produced by immobilizing Protein A/G (Thermo Scientific) to Series S Sencor Chip CM5 (GE Healthcare) were used. Antibodies of interest were captured onto these chips, and allowed to interact to each FcγR diluted with running buffer. To regenerate and repeatedly use the chip, the antibodies captured onto the chip were washed off by reacting 10 mM glycine-HCl, pH 1.5.
T1 sequence (P08637 17-208): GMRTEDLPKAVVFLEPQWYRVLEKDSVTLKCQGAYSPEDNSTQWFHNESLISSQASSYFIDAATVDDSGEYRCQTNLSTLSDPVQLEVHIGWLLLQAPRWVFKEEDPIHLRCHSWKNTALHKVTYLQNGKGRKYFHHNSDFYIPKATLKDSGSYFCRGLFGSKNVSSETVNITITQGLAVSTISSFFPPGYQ

FcgRIIb [2] = target: T2, FcgRIIb (human, UniProt P31994 43-217); assay: as above
T2 construct: extracellular domain; also called FcγRIIb; 2b; not shown: His tag attached to the C terminus
T2 sequence (looked up): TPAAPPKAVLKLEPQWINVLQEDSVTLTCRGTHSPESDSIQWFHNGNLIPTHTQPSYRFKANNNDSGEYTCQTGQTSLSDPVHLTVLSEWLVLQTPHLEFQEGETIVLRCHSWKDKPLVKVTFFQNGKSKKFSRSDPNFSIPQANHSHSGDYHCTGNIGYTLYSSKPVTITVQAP
Description: as §1, §2

FcgRIIaH [3] = target: T3, FcgRIIaH (human, UniProt P12318 34-217); assay: as above
T3 construct: extracellular domain; also called FcγRIIa H; FcgRIIa type H; not shown: His tag attached to the C terminus
T3 sequence (looked up): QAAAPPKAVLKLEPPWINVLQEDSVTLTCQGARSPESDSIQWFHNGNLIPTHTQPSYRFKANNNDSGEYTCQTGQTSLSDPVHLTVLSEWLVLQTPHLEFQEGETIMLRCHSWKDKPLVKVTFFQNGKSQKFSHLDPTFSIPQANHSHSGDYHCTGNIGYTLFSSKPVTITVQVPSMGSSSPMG
Description: as §1, §2

FcgRIa = target: T4, FcgRIa (human, UniProt P12314 16-292); assay: as above
T4 construct: extracellular domain; also called FcγRIa; FcγRI (CD64); not shown: His tag attached to the C terminus
Description: as §1, §2

FcgRIIaR [4] = target: T5, FcgRIIaR (human, UniProt P12318 34-217); assay: as above
T5 construct: extracellular domain; also called FcγRIIa R; FcgRIIa type R; not shown: His tag attached to the C terminus
T5 sequence (looked up): T3 sequence (looked up) with H134R
Description: as §1, §2

FcgRIIIaV [5] = target: T6, FcgRIIIaV (human, UniProt P08637 17-208); assay: as above
T6 construct: extracellular domain; also called FcγRIIIa V; 3aV; not shown: His tag attached to the C terminus
Description: as §1, §2

FcgRIIIaF [6] = target: T7, FcgRIIIaF (human, UniProt P08637 17-208); assay: SPR (Biacore); KD of H240-Kn033/H240-Hl033/L73-k0 divided by KD of this variant
T7 construct: extracellular domain; also called FcγRIIIa F; 3aF; not shown: His tag attached to the C terminus
T7 sequence (P08637 17-208): as the sequence (P08637 17-208) above

FcgRIIIaV [7] = target: T6, FcgRIIIaV; assay: as above
FcgRIIaH [8] = target: T8, FcgRIIaH (human, UniProt P12318 34-217); assay: as above
T8 construct: extracellular domain; also called FcγRIIa H; FcgRIIa type H; not shown: His tag attached to the C terminus
T8 sequence (looked up): T3 sequence (looked up)

FcgRIIaR [9] = target: T9, FcgRIIaR (human, UniProt P12318 34-217); assay: as above
T9 construct: extracellular domain; also called FcγRIIa R; FcgRIIa type R; not shown: His tag attached to the C terminus
T9 sequence (looked up): T3 sequence (looked up) with H134R

FcgRIIb [10] = target: T10, FcgRIIb (human, UniProt P31994 43-217); assay: as above
T10 construct: extracellular domain; also called FcγRIIb; 2b; not shown: His tag attached to the C terminus
T10 sequence (looked up): T2 sequence (looked up)

Protein A [11] = target: T11, Protein A (UniProt P38507 37-327); assay: Protein A column chromatography, stepwise pH elution; eluted fractions analysed by cation exchange chromatography (peak area %)
T11 construct: Commercial chromatography resin; also called rProtein A Sepharose Fast Flow (GE Healthcare)

Protein A [12] = target: T12, Protein A (UniProt P38507 37-327); assay: Protein A affinity chromatography, stepwise pH elution
T12 construct: bought recombinant resin; also called rProtein A Sepharose Fast Flow
Description: Samples purified by batchwise elution were used as controls.

Protein A [13] = target: T12, Protein A; assay: Protein A affinity chromatography, elution at pH 3.6
Protein A [14] = target: T12, Protein A; assay: Protein A affinity chromatography, elution at pH 3.6 and pH 2.7
Protein A [15] = target: T11, Protein A; assay: Protein A column chromatography, pH 3.6 elution; eluted fraction analysed by cation exchange chromatography (peak area %)
Description: The quantity of CM to be loaded was adjusted in a way that the quantity of the loaded antibody is 20 mg/ml resine. Fractions eluted under each condition were collected and the components contained in each elution fraction were identified by cation exchange chromatography analysis. […] Samples purified by batchwise elution were used as controls.
The values represent the area of elution peak expressed in percentage.

T6 sequence (P08637 17-208 F176V limits assumed): as the sequence (P08637 17-208) above, with F160V counted along it
T4 sequence (P12314 16-292): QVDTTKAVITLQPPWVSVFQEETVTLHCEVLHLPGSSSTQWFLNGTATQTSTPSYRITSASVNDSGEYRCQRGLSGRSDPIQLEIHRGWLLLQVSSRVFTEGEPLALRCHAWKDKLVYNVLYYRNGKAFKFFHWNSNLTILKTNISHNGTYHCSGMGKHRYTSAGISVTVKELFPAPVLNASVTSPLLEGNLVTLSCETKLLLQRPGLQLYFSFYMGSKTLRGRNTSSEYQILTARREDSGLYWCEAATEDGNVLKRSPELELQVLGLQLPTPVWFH

B1: H240-Kn125/H240-Hl076/L73-k0 (antibody, human IgG1, kappa)
heavy 1: QDQLVQSGAEVKKPGASVKVSCKASGFNIKDTYIQWVRQAPGQGLEWMGRIDPLRKQTKYREKFEGRVTITADTSTNTAYMELSSLRSEDTAVYYCVRSGREFDYWGQGTLVTVSSASTKGPSVFPLAPSSKSTSGGTAALGCLVKDYFPEPVTVSWNSGALTSGVHTFPAVLQSSGLYSLSSVVTVPSSSLGTQTYICNVNHKPSNTKVDKKVEPKSCDKTHTCPPCPAPEYQWGPMVFLFPPKPKDTLMISRTPEVTCVVVDVSDEEPEVKFNWYVDGVEVHNAKTKPREEQYNATYRVVSVLTVLHQDWLNGKEYKCKVSNKALPAPIEKTISKAKGQPREPQVCTLPPSRDELTKNQVSLWCLVKGFYPSDIAVEWESNGQPENNYKTTPPVLDSDGSFFLYSKLTVDKSRWQQGNVFSCSVMHEALHNHYTQKSLSLSP
heavy 2: QDQLVQSGAEVKKPGASVKVSCKASGFNIKDTYIQWVRQAPGQGLEWMGRIDPLRKQTKYREKFEGRVTITADTSTNTAYMELSSLRSEDTAVYYCVRSGREFDYWGQGTLVTVSSASTKGPSVFPLAPSSKSTSGGTAALGCLVKDYFPEPVTVSWNSGALTSGVHTFPAVLQSSGLYSLSSVVTVPSSSLGTQTYICNVNHKPSNTKVDKKVEPKSCDKTHTCPPCPAPELLGGPSVFLFPPKPKDTLMISRTPEVTCVVVDVSHEEPEVKFNWYVDGVEVHNAKTKPREEQYNSTYRVVSVLTVLHQDWLNGKEYKCKVSNDALPMPIEETISKAKGQPREPQVYTLPPSRCELTKNQVSLSCAVKGFYPSDIAVEWESNGQPENNYKTTPPVLDSDGSFFLVSKLTVDKSRWQQGNVFSCSVMHEALHNHYTQKSLSLSP
light: DIQMTQSPSSLSASVGDRVTITCRASQDIHKYIAWYQQKPGQAPRLLIQYTSTLQPGVPSRFSGSGSGTDYTFTISSLQPEDIATYYCLQYEQLRTFGGGTKVEIKRTVAAPSVFIFPPSDEQLKSGTASVVCLLNNFYPREAKVQWKVDNALQSGNSQESVTEQDSKDSTYSLSSTLTLSKADYEKHKVYACEVTHQGLSSPVTKSFNRGEC
Kd (FcgRIIIaF [1]): 1.3 nM | Kd (FcgRIIb [2]): 3.9 µM | Kd (FcgRIIaH [3]): 140 nM | Kd (FcgRIa): 0.066 nM | Kd (FcgRIIaR [4]): 420 nM

B2: H240-Kn125/H240-Hl076/L73-k0 (antibody, human IgG1, kappa)
heavy 1: B1 heavy 1
heavy 2: B1 heavy 2
light: B1 light
notes: Anti-epiregulin heterodimerized IgG1, knobs-into-holes
Kd (FcgRIIIaV [5]): 0.26 nM | fold 3aF (FcgRIIIaF [6]): 223 fold | fold 3aV (FcgRIIIaV [7]): 185 fold | fold 2aH (FcgRIIaH [8]): 3.7 fold | fold 2aR (FcgRIIaR [9]): 1.8 fold | fold 2b (FcgRIIb [10]): 0.8 fold

B3: J142-z73/L180-k (antibody, human IgG4 S228P, kappa)
heavy: QVQLVQSGSELKKPGASVKVSCKASGYTFTDNNMDWVRQAPGQGLEWMGDINTRSGGSIYNEEFQDRVTMTIDKSTGTAYMELSSLRSEDTAVYYCARRRSYGYYHDEWGEGTLVTVSSASTKGPSVFPLAPCSRSTSESTAALGCLVKDYFPEPVTVSWNSGALTSGVHTFPAVLQSSGLYSLSSVVTVPSSSLGTKTYTCNVDHKPSNTKVDKRVESKYGPPCPPCPAPEFLGGPSVFLFPPKPKDTLMISRTPEVTCVVVDVSQEDPEVQFNWYVDGVEVHNAKTKPREEQFNSTYRVVSVLTVLHQDWLNGKEYKCKVSNKGLPSSIEKTISKAKGQPREPQVYTLPPSQEEMTKNQVSLTCLVKGFYPSDIAVEWESNGQPENNYKTTPPVLDSDGSFFLYSRLTVDKSRWQEGNVFSCSVMHEALHNRFTQESLSLSP
light: DIQMTQSPSSLSASVGDRVTITCKASRNIERNLAWYQQKPGQAPELLIYSASRKESGVPDRFSGSRYGTDFTLTISSLQPEDLATYYCQQYYSPPLTFGGGTKVEIKRTVAAPSVFIFPPSDEQLKSGTASVVCLLNNFYPREAKVQWKVDNALQSGNSQESVTEQDSKDSTYSLSSTLTLSKADYEKHKVYACEVTHQGLSSPVTKSFNRGEC
notes: also called homomeric antibody against FX
binding result (Protein A [11]): no binding

B4: J142-z72/L180-k (antibody, human IgG4 S228P, kappa)
heavy: B3 heavy with E438K
light: B3 light
notes: also called homomeric antibody J142-z72; homomeric antibody against FX
binding result (Protein A [12]): no binding

B5: J300-z107/L210-k (antibody, human IgG4 S228P, kappa)
heavy: B3 heavy with T69I, I72V, G77D, Y95H, R100K, H106L, K198Q, F295Y, R408K, F435Y
light: B3 light with L83I, Y92S
notes: also called homomeric antibody J300-z107
binding result (Protein A [13]): no binding

B6: J142-z73/L180-k (antibody, human IgG4 S228P, kappa)
heavy: B3 heavy
light: B3 light
notes: also called homomeric antibody J142-z73
binding result (Protein A [14]): no binding

B7: J300-z107/L210-k (antibody, human IgG4 S228P, kappa)
heavy: B3 heavy with T69I, I72V, G77D, Y95H, R100K, H106L, K198Q, F295Y, R408K, F435Y
light: B3 light with L83I, Y92S
notes: Homomeric by-product in the culture medium of Q407-z106/J300-z107/L210-k; also called homomeric antibody against FX
binding result (Protein A [15]): no binding
